# Experimental data from the supplement of paper PMC7125110.
# ± gives the standard error. For part of these data: This sample holds only a part of the variants without activity.
# B1: glmS ribozyme (parent)
# chain: AUAAAAGCGCCAGAACUACAGAAAUGUAGUUGACGAGGAGGAGGUUUAUCGAAUUUUCGGCGGAUGCCUCCAAA
# Experiments:
# Details in all cases: with glucosamine-6-phosphate
# [1] = variants of: B1; assay: kcat; higher = faster cleavage; RNA array
# Method in brief: (§1)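 Barcoded ribozyme variants on sequenced MiSeq chips were transcribed in situ by E. coli RNA polymerase and followed at 37 °C through a hybridised Cy3 probe. Glucosamine-6-phosphate at 40 μM to 10 mM in HEPES/KCl/Mg(OAc)2 buffer was flowed in, and tiles were imaged over ~14 h. Signals were normalised to baseline and to non-cleaving reference variants, and per-tile medians were fit to one- or two-exponential decays to give kobs. Weighted Michaelis–Menten fits across concentrations gave kcat and KM.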
# [2] = variants of: B1; assay: self-cleavage kobs at 40 uM GlcN6P; higher = faster cleavage; RNA array
# Method in brief: as §1
# [3] = variants of: B1; assay: self-cleavage kobs at 640 uM GlcN6P; higher = faster cleavage; RNA array
# Method in brief: as §1
# [4] = variants of: B1; assay: self-cleavage kobs at 2500 uM GlcN6P; higher = faster cleavage; RNA array
# Method in brief: as §1
# [5] = variants of: B1; assay: self-cleavage kobs at 10000 uM GlcN6P; higher = faster cleavage; RNA array
# Method in brief: as §1
# [6] = variants of: B1; assay: KM; higher = weaker cofactor use; RNA array
# Method in brief: as §1
# [7] = variants of: B1; assay: self-cleavage kobs at 160 uM GlcN6P; higher = faster cleavage; RNA array
# Method in brief: as §1
Variant,kcat [1] [s⁻¹],self-cleavage kobs at 40 uM GlcN6P [2] [s⁻¹],self-cleavage kobs at 640 uM GlcN6P [3] [s⁻¹],self-cleavage kobs at 2500 uM GlcN6P [4] [s⁻¹],self-cleavage kobs at 10000 uM GlcN6P [5] [s⁻¹],KM [6] [µM],self-cleavage kobs at 160 uM GlcN6P [7] [s⁻¹]
G51U A52G,< 1e-05,< 1e-05,< 1e-05,< 1e-05,–,–,–
G51U C67U,< 1e-05,–,–,–,< 1e-05,–,–
A52C C71U,1.4e-05 ± 5.1e-07,< 1e-05,–,–,–,1650 ± 280,–
C50G G62A,0.000121 ± 5.5e-05,3.58e-05 ± 1.1e-05,–,0.000168 ± 3.3e-05,–,–,0.000128 ± 2.4e-05
C50U A52G,1.11e-05 ± 2.8e-06,–,–,–,–,–,–
A53C G59U,< 1e-05,–,–,–,–,–,–
A52U C67U,0.000336 ± 2.3e-05,–,7.82e-05 ± 1e-05,0.000163 ± 2e-05,0.00028 ± 2.8e-05,2300 ± 310,–
C50G U56A,3e-05 ± 4.9e-06,–,–,4.14e-05 ± 1.9e-05,–,–,–
A52G A53U,0.000266 ± 2.2e-05,–,6.4e-05 ± 1.5e-05,0.000176 ± 3.4e-05,0.000219 ± 2.3e-05,1900 ± 430,–
A53C U54A,0.00804 ± 0.0035,0.000184 ± 2.3e-05,0.00128 ± 0.00018,0.00277 ± 0.00065,0.00747 ± 0.00098,–,0.000353 ± 9.2e-05
C50G G60A,4.61e-05 ± 2.1e-05,–,–,4.5e-05 ± 1.8e-05,–,–,7.6e-05 ± 1.9e-05
